Experiment [1] has as its target T1, cohesin-human CD40 ectodomain protein (P3398) (human).
T1 construct: SPR analyte; also called soluble human CD40 ectodomain; liquid phase soluble human CD40 ectodomain; not shown: cohesin domain of P3398 and its junction to CD40
The experiment is described as follows: SPR. (In general: In SPR one partner is held on a chip, and binding of the other changes the refractive index at the surface.)

The target of experiment [2] is T2, human CD40 ectodomain fused to FAS transmembrane and intracellular domains, on CHO cells (human). The experiment is described as follows: cell-based or functional assay.
Experiment [3] addresses T3, human CD40 on cells (B cells, MDDCs, stably transfected CHO cells) (human, UniProt P25942 21-277). The experiment is described as follows: cell-based or functional assay.
The target in experiment [4] is T3, human CD40 on cells (B cells, MDDCs, …). In words: cell-based or functional assay. The source holds these as a separate data set.
Experiment [5] has as its target T1, cohesin-human CD40 ectodomain protein …. In words: SPR (SensiQ Pioneer), hIgG4 mAb captured on Protein A/G, cohesin-human CD40 ectodomain in solution.
For experiment [6], the target named is T3, human CD40 on cells (B cells, MDDCs, …). In words: flow cytometry, stably transfected CHO cells, 1 h on ice, goat anti-human IgG-PE, % of events in gate P1 [panel CD40 CHO]. For orientation: In flow cytometry, cells or beads pass a laser one at a time.
In experiment [7] the target is T2, human CD40 ectodomain fused to FAS …. The experiment is described as follows: flow cytometry, stably transfected CHO cells, 1 h on ice, goat anti-human IgG-PE, % of events in gate P1 [panel WT CD40-FAS CHO].
Experiment [8] addresses CD40 E28A FAS (mutated CD40 ectodomain fused to FAS) on CHO cells (human). The experiment is described as follows: flow cytometry, stably transfected CHO cells, 1 h on ice, goat anti-human IgG-PE, % of events in gate P1 [panel CD40 E28A FAS CHO].
Experiment [9] concerns the target CD40 R27A FAS (mutated CD40 ectodomain fused to FAS) on CHO cells (human). In words: flow cytometry, stably transfected CHO cells, 1 h on ice, goat anti-human IgG-PE, % of events in gate P1 [panel CD40 R27A FAS CHO].
The target of experiment [10] is T4, human CD40 ectodomain mouse Fc fusion protein (human, UniProt P25942 21-193).
T4 construct: a human Fc version was used with the mouse mAbs; also called soluble CD40
The experiment is described as follows: competition flow cytometry: human IgG4 mAb titrated into 2 ug/ml human CD40 ectodomain-mouse Fc, 1 h on ice, then added to human CD40L-transfected L cells; cell-bound CD40-Fc detected with anti-IgG-PE; blocked ligand: CD40L on L cells [right panel].

In experiment [11] the target is T4, human CD40 ectodomain mouse Fc fusion …. In words: competition, flow cytometry: mAb pre-incubated with CD40 ectodomain-Fc, then CD40L-transfected L cells.

Some results are limits rather than exact numbers.

CD40 E28A FAS (mutated CD40 ectodomain fused to FAS) on CHO cells (human), sequence (chain, as listed by the source E28A E28A): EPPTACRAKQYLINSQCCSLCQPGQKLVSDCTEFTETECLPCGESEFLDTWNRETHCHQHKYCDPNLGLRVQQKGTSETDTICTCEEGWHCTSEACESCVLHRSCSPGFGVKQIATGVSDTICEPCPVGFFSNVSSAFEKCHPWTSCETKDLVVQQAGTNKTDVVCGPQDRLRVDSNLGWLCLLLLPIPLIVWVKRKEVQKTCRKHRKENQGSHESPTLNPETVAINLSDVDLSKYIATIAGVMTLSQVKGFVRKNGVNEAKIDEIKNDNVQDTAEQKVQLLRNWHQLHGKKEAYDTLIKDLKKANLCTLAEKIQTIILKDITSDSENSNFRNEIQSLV
CD40 R27A FAS (mutated CD40 ectodomain fused to FAS) on CHO cells (human), sequence (chain, as listed by the source R27A R27A): as the sequence (chain, as listed by the source E28A E28A) above, with R7A, A8E counted along it
T4 sequence (P25942 21-193): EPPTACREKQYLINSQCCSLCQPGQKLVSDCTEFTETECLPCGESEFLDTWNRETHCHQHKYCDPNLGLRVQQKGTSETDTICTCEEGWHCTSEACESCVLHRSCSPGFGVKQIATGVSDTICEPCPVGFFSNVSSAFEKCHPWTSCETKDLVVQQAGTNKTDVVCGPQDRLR
T1 sequence (chain, as listed by the source limits assumed): as the sequence (P25942 21-193) above
T3 sequence (P25942 21-277): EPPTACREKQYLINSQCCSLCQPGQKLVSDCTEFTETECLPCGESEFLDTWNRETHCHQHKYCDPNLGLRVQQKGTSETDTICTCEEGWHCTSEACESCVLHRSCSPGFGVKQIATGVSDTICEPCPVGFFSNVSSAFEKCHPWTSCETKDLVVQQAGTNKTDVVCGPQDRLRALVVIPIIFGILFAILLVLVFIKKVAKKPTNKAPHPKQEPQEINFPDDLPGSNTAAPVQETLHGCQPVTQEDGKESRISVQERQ
T2 sequence (chain, as listed by the source limits assumed): as the sequence (chain, as listed by the source E28A E28A) above, with A8E counted along it

B1: anti-CD40 12E12 human IgG4 antibody (antibody, V domains shown)
VH: EVQLVESGGGLVQPGGSLKLSCATSGFTFSDYYMYWVRQAPGKGLEWVAYINSGGGSTYYPDTVKGRFTISRDNAKNTLYLQMNSLRAEDTAVYYCARRGLPFHAMDYWGQGTLVTVSS
VL: DIQMTQSPSSLSASVGDRVTITCSASQGISNYLNWYQQKPGKAVKLLIYYTSILHSGVPSRFSGSGSGTDYTLTISSLQPEDFATYYCQQFNKLPPTFGGGTK
notes: also called mAb6 [12E12]; anti-CD40 12E12 IgG4
On to B1, for which, in [1], the Kd – broadly, the free concentration of one partner at which half of the binding sites on the other are occupied at equilibrium, for simple one-to-one binding – turned out to be 28 nM. In addition, the “EC50 of killing of CD40-FAS CHO cells (loss of MTT reduction)” value in experiment [2] is approximately 1 nM. In addition, in experiment [3], the “EC50/EC50 CP, B cell proliferation” value was approximately 10 ratio and the “Δ w/sCD40L (fold): fold difference in B cell proliferation EC50 with constant 6 nM soluble human CD40L” value (“Δ w/sCD40L (fold): fold difference” below) was approximately 0 fold. In experiment [4], the “EC50 (nM) cytokines: 50% of maximum cytokine secretion by MDDCs” value is more than 10 nM; the “EC50/EC50 CP, MDDC cytokine secretion” value was more than 1000 ratio; the “EC50 w/sCD40L (nM): MDDC cytokine secretion with constant suboptimal soluble human CD40L” value is more than 10 nM; the “Δ w/sCD40L (fold): MDDC cytokine secretion EC50” value was approximately 0 fold. Also, in experiment [5], the affinity, expressed as Kd, was 33 nM; the koff (as a rule, a measure of how fast the partners let go of each other) stood at 0.0046 s⁻¹; the kon (usually the rate constant with which the complex forms) turned out to be 150000 M⁻¹ s⁻¹. The EC50 (read off the curve) (commonly the concentration at which the effect is half-maximal) in [6] was approximately 0.0003 nM. In addition, the “EC50 (read off the curve)” value in experiment [7] is approximately 0.0005 nM. Further, the “EC50 (read off the curve)” value in experiment [8] is approximately 0.0002 nM. Besides, in experiment [9], the “EC50 (read off the curve)” value is approximately 0.0003 nM. Also, in [10], the “IC50 (read off the curve)” value is approximately 0.5 mg/L.

B2: CP-870,893 formatted as human IgG4 (antibody, V domains shown)
VH: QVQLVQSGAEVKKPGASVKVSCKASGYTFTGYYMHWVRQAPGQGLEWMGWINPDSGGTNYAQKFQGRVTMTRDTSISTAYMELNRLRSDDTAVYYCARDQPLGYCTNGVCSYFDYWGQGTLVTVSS
VL: DIQMTQSPSSVSASVGDRVTITCRASQGIYSWLAWYQQKPGKAPNLLIYTASTLQSGVPSRFSGSGSGTDFTLTISSLQPEDFATYYCQQANIFPLTFGGGTK
notes: also called mAb5 [CP870893]; anti-CD40 CP
With B2, in [3], the “EC50/EC50 CP, B cell proliferation” value came to 1 ratio and the “Δ w/sCD40L (fold): fold difference” value was approximately 0 fold. In experiment [4], the “EC50 (nM) cytokines: 50% of maximum cytokine secretion by MDDCs” value was approximately 0.1 nM; the “EC50/EC50 CP, MDDC cytokine secretion” value was determined as 1 ratio; the “EC50 w/sCD40L (nM): MDDC cytokine secretion with constant suboptimal soluble human CD40L” value was not below 0.01 nM; the “Δ w/sCD40L (fold): MDDC cytokine secretion EC50” value was approximately 100 fold. Also, the “fold higher antibody level required to partially block CD40 binding to CD40L, against the stoichiometric amounts of 12B4 and 12E12” value in experiment [11] is more than 20 fold. In experiment [5], this molecule came in with a Kd of 71 nM, an off-rate (koff) of 0.0022 s⁻¹ and an association rate constant (kon) of 46000 M⁻¹ s⁻¹. For the same molecule, the “EC50 (read off the curve)” value in [6] is approximately 0.003 nM. Moreover, in experiment [7], the “EC50 (read off the curve)” value was approximately 0.004 nM. Moreover, the “EC50 (read off the curve)” value in [8] is approximately 0.01 nM. In addition, the binding result in experiment [9] is “no binding”.

B3: anti-CD40 11B6 human IgG4 antibody (antibody, V domains shown)
VH: EVQLVQSGAEVKKPGASVKISCKASGYSFTGYYMHWVKQAHGQGLEWIGRINPYNGATSYNQNFKDRATLTVDKSTSTAYMELSSLRSEDTAVYYCAREDYVYWGQGTTVTVSS
VL: DVVMTQSPLSLPVTLGQPASISCRSSQSLVHSNGNTYLHWYQQRPGQSPRLLIYKVSNRFSGVPDRFSGSGSGTDFTLKISRVEAEDVGVYFCSQSTHVPWTFGGGTKLEIKR
notes: also called mAb1 [11B6 VH/VkV2]; PAB3405
For B3, in experiment [2], the “EC50 of killing of CD40-FAS CHO cells (loss of MTT reduction)” value was approximately 2.5 nM. Besides, in [3], the “EC50 (nM) B cell: dose for 50% of maximum B cell proliferation” value was not below 10 nM; the “EC50/EC50 CP, B cell proliferation” value was not below 100 ratio; the “EC50 w/sCD40L (nM): B cell proliferation with constant 6 nM soluble human CD40L” value is not below 0.1 nM; the “Δ w/sCD40L (fold): fold difference” value was not below 100 fold. Besides, in experiment [4], the “EC50 (nM) cytokines: 50% of maximum cytokine secretion by MDDCs” value was more than 10 nM; the “EC50/EC50 CP, MDDC cytokine secretion” value was more than 1000 ratio; the “EC50 w/sCD40L (nM): MDDC cytokine secretion with constant suboptimal soluble human CD40L” value is not below 0.1 nM; the “Δ w/sCD40L (fold): MDDC cytokine secretion EC50” value is more than 1000 fold. Moreover, in [5], the Kd turned out to be 217 nM, the koff came out at 0.064 s⁻¹ and the kon was determined as 300000 M⁻¹ s⁻¹. The “EC50 (read off the curve)” value in experiment [6] was approximately 0.0002 nM. Moreover, in [7], the “EC50 (read off the curve)” value is approximately 0.0003 nM. Further, in experiment [8], the concentration for a half-maximal effect (EC50 (read off the curve)) was approximately 0.0002 nM. In experiment [9], the “EC50 (read off the curve)” value was approximately 0.0003 nM.

B4: anti-CD40 12B4 human IgG4 antibody (antibody, V domains shown)
VH: EVQLQQSGPELVKPGASVKMSCKASGYTFTDYVLHWVKQKPGQGLEWIGYINPYNDGTKYNEKFKGKATLTSDKSSSTAYMELSSLTSEDSAVYYCARGYPAYSGYAMDYWGQGTSVTVSS
VL: DIQMTQTTSSLSASLGDRVTISCRASQDISNYLNWYQQKPDGTVKLLIYYTSRLHSGVPSRFSGSGSGTDYSLTISNLEQEDIATYFCHHGNTLPWTFGGGTK
notes: also called mAb3 [12B4]
On to B4, for which, in experiment [3], the “EC50/EC50 CP, B cell proliferation” value was approximately 10 ratio and the “Δ w/sCD40L (fold): fold difference” value was approximately 0 fold. In addition, in [4], the “EC50 (nM) cytokines: 50% of maximum cytokine secretion by MDDCs” value was more than 10 nM; the “EC50/EC50 CP, MDDC cytokine secretion” value is not below 100 ratio; the “Δ w/sCD40L (fold): MDDC cytokine secretion EC50” value is approximately 0 fold. Moreover, in [5], the Kd was 100 nM, the koff worked out at 0.027 s⁻¹ and the kon worked out at 250000 M⁻¹ s⁻¹. Besides, the “IC50 (read off the curve)” value in [10] is approximately 0.2 mg/L.

B5: anti-CD40 24A3 human IgG4 antibody (antibody, V domains shown)
VH: DVQLQESGPDLVKPSQSLSLTCTVTGYSITSDYSWHWIRQFPGNKLEWMGYIYYSGSTNYNPSLKSRISITRDTSKNQFFLQLNSVTTEDSATYFCARFYYGYSFFDYWGQGTTLTVSS
VL: QIVLTQSPAFMSASPGEKVTMTCSASSSVSYMHWYQQKSGTSPKRWIYDTSKLASGVPARFSGSGSGTSYSLTISSMEAEDAATYYCQQWSSNPLTFGAGTK
notes: also called mAb4 [24A3]
B5: in experiment [3], the “EC50 (nM) B cell: dose for 50% of maximum B cell proliferation” value is more than 10 nM; the “EC50/EC50 CP, B cell proliferation” value is not below 1000 ratio; the “Δ w/sCD40L (fold): fold difference” value is approximately 100 fold. In addition, in experiment [4], the “EC50 (nM) cytokines: 50% of maximum cytokine secretion by MDDCs” value was more than 10 nM; the “EC50/EC50 CP, MDDC cytokine secretion” value is more than 1000 ratio; the “EC50 w/sCD40L (nM): MDDC cytokine secretion with constant suboptimal soluble human CD40L” value is not below 10 nM; the “Δ w/sCD40L (fold): MDDC cytokine secretion EC50” value is more than 1000 fold. Also, in [5], the Kd was 97 nM, the koff is 0.008 s⁻¹ and the kon was 83000 M⁻¹ s⁻¹.
